The values that follow are results of earlier work, collected in paper PMC3903589.

The target in one series is CEACAM1 (UniProt P13688). The experiment in a line: SPR.
In a further series the target is NCAM (UniProt P13591). The experiment in a line: SPR. A general note: In SPR one partner is held on a chip, and binding of the other changes the refractive index at the surface.

Chain of CEACAM1 (P13688 35-428): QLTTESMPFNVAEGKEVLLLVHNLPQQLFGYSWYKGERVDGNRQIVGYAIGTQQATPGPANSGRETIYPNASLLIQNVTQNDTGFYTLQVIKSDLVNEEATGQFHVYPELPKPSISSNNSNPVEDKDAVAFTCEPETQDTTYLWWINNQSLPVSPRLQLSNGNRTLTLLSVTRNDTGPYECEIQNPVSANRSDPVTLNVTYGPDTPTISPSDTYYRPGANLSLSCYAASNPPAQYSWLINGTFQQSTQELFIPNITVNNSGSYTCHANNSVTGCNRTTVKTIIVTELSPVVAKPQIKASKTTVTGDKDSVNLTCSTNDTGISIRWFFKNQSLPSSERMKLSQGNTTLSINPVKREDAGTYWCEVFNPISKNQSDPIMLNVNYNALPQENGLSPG
Chain of NCAM (P13591 20-718): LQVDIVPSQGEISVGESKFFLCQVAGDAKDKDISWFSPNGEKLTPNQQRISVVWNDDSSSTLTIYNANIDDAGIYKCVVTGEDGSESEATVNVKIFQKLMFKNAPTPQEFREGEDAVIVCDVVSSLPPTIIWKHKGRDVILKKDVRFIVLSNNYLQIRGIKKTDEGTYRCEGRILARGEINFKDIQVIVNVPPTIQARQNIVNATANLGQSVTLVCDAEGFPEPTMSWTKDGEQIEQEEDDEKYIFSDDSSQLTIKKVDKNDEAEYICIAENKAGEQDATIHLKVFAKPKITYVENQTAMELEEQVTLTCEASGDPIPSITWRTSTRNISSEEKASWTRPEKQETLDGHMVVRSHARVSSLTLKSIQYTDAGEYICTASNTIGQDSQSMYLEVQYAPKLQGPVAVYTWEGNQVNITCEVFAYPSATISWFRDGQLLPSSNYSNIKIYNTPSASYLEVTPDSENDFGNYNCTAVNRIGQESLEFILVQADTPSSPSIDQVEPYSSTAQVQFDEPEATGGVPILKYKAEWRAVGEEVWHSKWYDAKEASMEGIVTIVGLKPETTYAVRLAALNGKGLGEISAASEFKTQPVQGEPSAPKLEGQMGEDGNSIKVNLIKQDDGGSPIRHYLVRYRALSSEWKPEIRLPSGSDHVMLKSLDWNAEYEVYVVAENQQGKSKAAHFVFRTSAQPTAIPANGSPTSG

Usually Kd stands for the concentration at which binding is half-saturated. Consider CEACAM1 (from UniProt P13688), for which the Kd in the series with CEACAM1 was 7.65 µM.
Take NCAM (from UniProt P13591): the Kd in the series with NCAM was 0.025 µM.
